Legend:
[1] = biological target: human pro B-type natriuretic peptide (human); assay: two-step sandwich chemiluminescent immunoassay ([..]); capture 8.1 on microparticles, acridinium-labeled 15C4; proBNP at 577.4 pM
[2] = biological target: human B-type natriuretic peptide (human); assay: two-step sandwich chemiluminescent immunoassay ([..]); capture 8.1 on microparticles, acridinium-labeled 15C4; BNP at 43.8 pM
[3] = biological target: human B-type natriuretic peptide (human); assay: two-step sandwich chemiluminescent immunoassay ([..]); capture 8.1 on microparticles, acridinium-labeled 15C4; BNP at 0 pM (blank)
[4] = biological target: human N-terminal-pro B-type natriuretic peptide (human); assay: two-step sandwich chemiluminescent immunoassay ([..]); capture 15F11 on microparticles, acridinium-labeled 15C4; NT-proBNP at 577.4 pM
[5] = biological target: human pro B-type natriuretic peptide (human); assay: two-step sandwich chemiluminescent immunoassay ([..]); capture 8.1 on microparticles, acridinium-labeled 15C4; proBNP at 86.6 pM
[6] = biological target: human B-type natriuretic peptide (human); assay: two-step sandwich chemiluminescent immunoassay ([..]); capture 15F11 on microparticles, acridinium-labeled 15C4; BNP at 577.4 pM
[7] = biological target: human B-type natriuretic peptide (human); assay: two-step sandwich chemiluminescent immunoassay ([..]); capture 8.1 on microparticles, acridinium-labeled 15C4; BNP at 86.6 pM
[8] = biological target: human B-type natriuretic peptide (human); assay: two-step sandwich chemiluminescent immunoassay ([..]); capture 15F11 on microparticles, acridinium-labeled 15C4; BNP at 0 pM (blank)
[9] = biological target: human B-type natriuretic peptide (human); assay: two-step sandwich chemiluminescent immunoassay ([..]); capture 15F11 on microparticles, acridinium-labeled 15C4; BNP at 43.8 pM
[10] = biological target: human pro B-type natriuretic peptide (human); assay: two-step sandwich chemiluminescent immunoassay ([..]); capture 8.1 on microparticles, acridinium-labeled 15C4; proBNP at 0 pM (blank)
[11] = biological target: human N-terminal-pro B-type natriuretic peptide (human); assay: two-step sandwich chemiluminescent immunoassay ([..]); capture 15F11 on microparticles, acridinium-labeled 15C4; NT-proBNP at 86.6 pM
[12] = biological target: human N-terminal-pro B-type natriuretic peptide (human); assay: two-step sandwich chemiluminescent immunoassay ([..]); capture 15F11 on microparticles, acridinium-labeled 15C4; NT-proBNP at 288.7 pM
[13] = biological target: human B-type natriuretic peptide (human); assay: two-step sandwich chemiluminescent immunoassay ([..]); capture 15F11 on microparticles, acridinium-labeled 15C4; BNP at 288.7 pM
[14] = biological target: human pro B-type natriuretic peptide (human); assay: two-step sandwich chemiluminescent immunoassay ([..]); capture 8.1 on microparticles, acridinium-labeled 15C4; proBNP at 43.8 pM
[15] = biological target: human N-terminal-pro B-type natriuretic peptide (human); assay: two-step sandwich chemiluminescent immunoassay ([..]); capture 15F11 on microparticles, acridinium-labeled 15C4; NT-proBNP at 43.8 pM
[16] = biological target: human B-type natriuretic peptide (human); assay: two-step sandwich chemiluminescent immunoassay ([..]); capture 15F11 on microparticles, acridinium-labeled 15C4; BNP at 86.6 pM
[17] = biological target: human B-type natriuretic peptide (human); assay: two-step sandwich chemiluminescent immunoassay ([..]); capture 8.1 on microparticles, acridinium-labeled 15C4; BNP at 288.7 pM
[18] = biological target: human pro B-type natriuretic peptide (human); assay: two-step sandwich chemiluminescent immunoassay ([..]); capture 8.1 on microparticles, acridinium-labeled 15C4; proBNP at 288.7 pM
[19] = biological target: human N-terminal-pro B-type natriuretic peptide (human); assay: two-step sandwich chemiluminescent immunoassay ([..]); capture 15F11 on microparticles, acridinium-labeled 15C4; NT-proBNP at 0 pM (blank)
[20] = biological target: human B-type natriuretic peptide (human); assay: two-step sandwich chemiluminescent immunoassay ([..]); capture 8.1 on microparticles, acridinium-labeled 15C4; BNP at 577.4 pM

Sequence of human B-type natriuretic peptide (human) (peptide, as listed by the source): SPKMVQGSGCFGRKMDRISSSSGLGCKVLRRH
Sequence of human N-terminal-pro B-type natriuretic peptide (human) (chain, as listed by the source): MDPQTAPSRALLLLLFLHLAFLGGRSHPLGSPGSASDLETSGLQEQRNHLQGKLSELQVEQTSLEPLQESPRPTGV
Sequence of human pro B-type natriuretic peptide (human) (chain, as listed by the source): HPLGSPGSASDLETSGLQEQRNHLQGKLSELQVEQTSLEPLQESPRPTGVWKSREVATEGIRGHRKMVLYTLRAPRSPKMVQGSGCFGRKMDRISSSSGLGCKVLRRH

- mean rlus [1]: 116000 RLU
- mean rlus [2]: 567 RLU
- mean rlus [3]: 745 RLU
- mean rlus [4]: 658000 RLU
- mean rlus [5]: 12000 RLU
- mean rlus [6]: 1140 RLU
- mean rlus [7]: 713 RLU
- mean rlus [8]: 1200 RLU
- mean rlus [9]: 1040 RLU
- mean rlus [10]: 659 RLU
- mean rlus [11]: 62700 RLU
- mean rlus [12]: 317000 RLU
- mean rlus [13]: 1130 RLU
- mean rlus [14]: 5480 RLU
- mean rlus [15]: 22400 RLU
- mean rlus [16]: 1080 RLU
- mean rlus [17]: 732 RLU
- mean rlus [18]: 43000 RLU
- mean rlus [19]: 1140 RLU
- mean rlus [20]: 701 RLU
Substance: monoclonal antibody 15C4

— patent US20110124012A1
